# Numbering of substitutions follows the chain as printed. Entries after “also recorded” stand apart in the source; their conditions may differ.
# B1: G2.631 rat: anti-ABCG2 antibody raised in rat (antibody, V domains shown)
# VH: EVKLLESGGGLVQSGRSLKLSCAASGFIFSRFYMAWVRQAPRKGLEWVAYISNGAGSTYYRESVKGRFIISRDNAKSTLYLQMDSLRSEDTATYYCTTVAAPWNYVMDGWGQGASVTVSS
# VL: NIQITQSPSLLSASVGDRVTLSCKGSQNINNYLAWYQQKLGEAPKLLIYKTNSLHTGIPSRFSGSGSGTDYTLTISSLHSEDLATYYCYQYNNGYTFGAGTKLELK
# B2: G2.333 rat: anti-ABCG2 antibody raised in rat (antibody, V domains shown)
# VH: EIQLQESGPGLVKPSQSLSLTCSVTGYTITSGYDWTWLRKFPGNKMEWMGYISYSGFTNYNPSLRSRISISRDTSKNQFFLQLNSVTTEDTATYYCARTRGYNPFPYWGQGTLVTVSS
# VL: DIQMTQSPSLLSASVGDRVSLSCKAGRNVNNYLAWYQQKLGKPPKLLIYNSNSLQTGIPSRFSGSGSGTDFTLTISSLQPEDVATYFCQQYNSWTTFGSGTKLEIK
# B3: G2.248 mouse: anti-ABCG2 antibody raised in mouse, listed in Table 2 (antibody, V domains shown)
# VH: QVQLQQPGAELVKPGASVKLSCKTSGFTFSNSYISWLKQKPRQSLEWIAWIYAGTGGTNYNQKFTGKAQLTVDTSSSTAYMQLSSLTSEDSAIYYCATYGNFLYAMDNWGQGTSVTVSS
# VL: DIQMKQSPASLSASVGETVTITCRASGNIHNYLAWYQQKQGKSPQLLVYNTKTLADGVPSRFSGSGSGTQYSLKINSLQPEDFGSYYCQHFWSTPWTFGGGTKLEIK
# B4: G2.256 mouse: anti-ABCG2 antibody raised in mouse, listed in Table 2 (antibody, V domains shown)
# VH: EVQLQQSGPELVKPGASLKISCKTFGYSFTGYYMHWVKQSPEKSLEWIGKIVPSTGGTTYNQKFKAKATLTVDKSSFTAYMQLKSLTSEDSAVYYCAREKVYGYDVYYFDYWGQGTTLTVSS
# VL: DIVMSQSPATLSVTPGDRVSLSCRASQSISDYLHWYQQKSHESPRLLIKYASQSISGIPSRFSGSGSGSDFTLSINSVEPEDVGVYYCQNGHSFPWTFGGGTKLEIK
# B5: G2.636 rat: anti-ABCG2 antibody raised in rat (antibody, V domains shown)
# VH: EVKLVESGGGLVQPGRSLKLSCAASGFTFSRFYMAWVRQAPTKGLEWVAHISHGGDTTYYRDSVKGRFTISRDNAKSTLFLQMDSLRSEDTATYYCTTSAAPWNYVMDGWGLGASVTVSS
# VL: B1 VL with N1D, Q3V, I4M, S22T, Y32F
# B6: G2.629 rat: anti-ABCG2 antibody raised in rat (antibody, V domains shown)
# VH: EVQLVESGGGLVQPGRSLKLSCAASGFIFSRFYMAWVRQAPTKGLEWVAYINTGGGTTYYRDSVKGRFTISRDNAKTTLYLQMDSLRSEDTATYYCTTLAAPWNYVMDAWGQGASVTVSSA
# VL: B1 VL with N1D, I2V, Q3V, I4M, S22T, Y32F, I48T, A99P
# B7: G2.255 mouse: anti-ABCG2 antibody raised in mouse, listed in Table 2 (antibody, V domains shown)
# VH: EVMLVESGGALVKPGGSLKLSCAASGFTFSNNAMSWVRQTPETRLEWVATITGGGSYTYYPDSVKGRFTISRDNARNTLYLQMSSLRSEDTATYYCASPDGNYEGVLAYWGQGTLVTVSA
# VL: DIQMNQSPSSLSASLGDRVTISCSASQGISNYLNWYQQKPDGTIKLLIYYTSTLHSGVPSRFSGSGSGTDYSLTISNLEPEDIATYYCQHYSSLPWTFGGGTKLEIK
# B8: G2.343 rat: anti-ABCG2 antibody raised in rat (antibody, V domains shown)
# VH: SVQLKESGPGLVQPSQTLSLTCTVSGFSLTSNGVSWVRQPPGKGLEWIAAISSGGSTYYNSVLKSRLSISRDTSKSQVFLKMNSLQTEDTAIYFCTRDTYYGYNQIPFVYWGQGTLVTVSS
# VL: DVVLAQTPPTLSATIGQSVSISCRSSQSLLHSSGNTYLNWLLQRPGQPPQLLIYLVSRLESRVPNRFSGSGSGTDFTLKISGVEAEDLGVYYCVQSTHAPRTFGGGTKLELK
# Test system: 293T_ABCG2_OX cells
# Test: not given
# Assay type: cell-based, human
# Details: not given
# Experimental: Cytotoxicity Assays. The effect of antibodies on topotecan cytotoxicity was evaluated on 293T_ABCG2_OX cells, 293T cells stably transfected to express ABCG2. Cells were plated in 0.05 mL of Assay Media (DMEM+10% FBS) at 5000 cells/well in white, flat bottom 96-well tissue culture plates. Topotecan was prepared at 2× final assay concentration by serial dilution from 200 uM in assay media containing test antibodies or control antibodies at 100 ug/mL (2× final concentration), or Fumitremorgin C, a small molecule ABCG2 inhibitor at 20 uM (2× final concentration). An equivalent volume (0.05 mL) of the topotecan/antibody mixture was added to the 293T_ABCG2_OX cells in 96-well plates. The plates were then incubated at 37° C., in 5% CO2. After 72-96 hr plates were equilibrated to room temperature and cell viability assessed using Promega® CellTiter-Glo® Luminescent Cell Viability Assay according to the manufacturer's recommended protocol. Luminescence was measured on a Molecular Devices® FlexStation® 3 Multi-Mode Microplate Reader and data analyzed using GraphPad Prism 8.0 software. Half maximal inhibitory concentration (1050) is the concentration of drug (topotecan or other chemotherapy cytotoxic agent) where the response (cell growth) is reduced by 50%.
row,Molecule,effect on topotecan cytotoxicity on 293T_ABCG2_OX cells
1,B1,significantly increased the cytotoxic activity of topotecan

# Same assay, conditions: cell killing by topotecan on 293T_ABCG2_OX cells; viability relative to IgG control
row,Molecule,Killing
1,B2,+ (viability ≥30% and <50% of IgG control)
2,B3,− (≥75% of IgG control)
3,B4,− (≥75% of IgG control)
4,B5,+++ (viability <10% of IgG control)
5,B6,+ (viability ≥30% and <50% of IgG control)
6,B1,++ (viability ≥10% and <30% of IgG control)
7,B7,− (≥75% of IgG control)

# Test system: A549 (ATCC, CCL-185)
# Test: Xenograft study with NSCLC cell line A549
# Assay type: in vivo
# Details: not given
row,Molecule,"tumor volume, in combination with topotecan"
1,B1,efficacious in reducing tumor volume
2,B8,efficacious in reducing tumor volume; also recorded: particularly efficacious

# Same assay, conditions: compared with 5D3/CPT11 combination
row,Molecule,efficacy in combination with CPT11 (Irinotecan)
1,B2,significantly exceeds the efficacy of the 5D3/CPT11 combination

# Target: T1, ABCG2 (Homo sapiens, UniProt Q9UNQ0)
# T1 construct: expressed in transfected cells
# T1 sequence (Q9UNQ0 1-655): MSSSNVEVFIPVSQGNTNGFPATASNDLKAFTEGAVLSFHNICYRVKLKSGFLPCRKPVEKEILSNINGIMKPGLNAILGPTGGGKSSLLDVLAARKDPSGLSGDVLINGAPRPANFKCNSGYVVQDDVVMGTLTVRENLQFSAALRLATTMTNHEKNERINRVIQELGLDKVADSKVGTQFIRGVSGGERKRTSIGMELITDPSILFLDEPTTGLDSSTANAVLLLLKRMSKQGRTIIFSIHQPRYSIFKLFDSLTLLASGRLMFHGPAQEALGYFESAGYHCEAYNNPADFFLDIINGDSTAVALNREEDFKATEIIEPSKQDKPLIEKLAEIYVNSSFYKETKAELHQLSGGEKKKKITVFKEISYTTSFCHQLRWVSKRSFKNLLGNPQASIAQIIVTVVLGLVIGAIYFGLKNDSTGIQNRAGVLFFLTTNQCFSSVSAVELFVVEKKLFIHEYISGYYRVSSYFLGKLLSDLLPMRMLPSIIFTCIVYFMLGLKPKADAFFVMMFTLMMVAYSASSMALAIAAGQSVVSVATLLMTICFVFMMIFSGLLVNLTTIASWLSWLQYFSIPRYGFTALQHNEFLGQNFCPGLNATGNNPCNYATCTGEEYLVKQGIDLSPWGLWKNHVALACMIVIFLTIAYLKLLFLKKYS
# Test: Flow cytometry binding to 293T cells overexpressing human ABCG2 (293T_ABCG2_OX)
# Parameters: key to Binding by FACS: binding=“+”; non-significant binding=“−”
# Details: 293T_ABCG2_OX cells
# Experimental: (§1) Cell Binding Assays. Antibody binding to cells was evaluated by flow cytometry. 293T cells stably transfected to express human or cynomolgus ABCG2 (293T_ABCG2_OX) were washed once in flow cytometry buffer (PBS+2% FBS+0.02% sodium azide), resuspended at 2×10^6 cells/mL in flow cytometry buffer, and dispensed into 96-well microtiter plates at 0.1 mL/well. Recombinant antibodies were added to cells at 5 ug/mL for initial binding confirmation, or serially diluted from 100 ug/mL in flow cytometry buffer. After incubating cells on ice for 30 min, cells were washed twice with flow cytometry buffer. Bound antibody was detected with PE-labeled F(ab′)2 fragment goat anti-human IgG (Jackson ImmunoResearch) and evaluated on an Attune NxT flow cytometer. EC50 is calculated to be the concentration of antibody that gives half maximal response.
row,Molecule,Binding by FACS
1,B2,+
2,B3,+
3,B4,+
4,B5,+
5,B6,+
6,B1,+
7,B8,+
8,B7,+

# Same assay, conditions: 293T_ABCG2_OX cells; read-out: Affinity for human ABCG2
row,Molecule,Kd
1,B2,33 nM

# Same assay, conditions: in words; FIGS. 7-11, 21
row,Molecule,binding to 293T cells overexpressing human ABCG2
1,B5,strong binding
2,B1,strong binding

# Target: T1, ABCG2
# Test: not given
# Assay type: cell-based
# Details: not given
# Experimental: 293T_ABCG2_OX cells were washed several times and aliquoted into 96-well plates as 50 μl aliquots/well at a cell density of 2×10e6 cells per ml in phenol red-free DMEM. Cells were mixed with 50 μl antibodies or the small molecule inhibitors of ABCG2:-fumitremorgin C (FTC), or its tetracyclic analogue K0143, with a final concentration of 1 μM. Cells were then incubated in the presence of 2.5 μM Mitoxantrone 1 h at 37° C. The cells were subsequently washed twice and finally resuspended in […] PBS. Mitoxantrone fluorescence was measured using excitation at 635 nm and emission at 647 nm. Protocols was measuring efflux blockade are found in Szabo E, et al., PLoS One. 2018 Jan. 17; 13(1):e0190629; Deeken J F, et al., Mol Pharmacol. 2009 November; 76(5):946-56).
Molecule,Block Efflux,efflux inhibition activity
B2,+,strong efflux inhibition activity
B3,−,
B4,−,
B5,++,
B6,+,
B1,+,strong efflux inhibition activity
B8,+,
B7,−,

# Test system: cynomolgus ABCG2
# Test: Flow cytometry binding to 293T cells overexpressing cynomolgus ABCG2
# Parameters: key to Cynomolgus ABCG2 binding: binding=“+”; non-significant binding=“−”
# Details: not given
# Experimental: as §1
# cynomolgus ABCG2, sequence (as listed by the source): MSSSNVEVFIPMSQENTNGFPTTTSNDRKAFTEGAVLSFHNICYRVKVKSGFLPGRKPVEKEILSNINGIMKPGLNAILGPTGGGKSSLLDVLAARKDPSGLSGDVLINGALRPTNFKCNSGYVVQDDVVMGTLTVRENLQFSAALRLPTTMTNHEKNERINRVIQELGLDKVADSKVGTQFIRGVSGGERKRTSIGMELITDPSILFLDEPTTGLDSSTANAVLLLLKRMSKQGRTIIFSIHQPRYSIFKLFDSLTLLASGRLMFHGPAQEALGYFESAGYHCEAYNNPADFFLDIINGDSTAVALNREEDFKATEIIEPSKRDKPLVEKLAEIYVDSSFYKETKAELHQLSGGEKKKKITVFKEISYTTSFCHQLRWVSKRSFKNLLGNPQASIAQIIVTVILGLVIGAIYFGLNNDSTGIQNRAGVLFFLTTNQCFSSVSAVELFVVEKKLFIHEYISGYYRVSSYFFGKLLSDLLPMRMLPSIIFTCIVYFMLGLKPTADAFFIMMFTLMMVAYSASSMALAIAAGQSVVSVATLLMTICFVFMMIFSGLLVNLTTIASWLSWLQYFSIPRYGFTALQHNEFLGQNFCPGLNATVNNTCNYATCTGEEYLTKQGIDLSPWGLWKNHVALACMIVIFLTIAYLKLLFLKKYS
row,Molecule,Cynomolgus ABCG2 binding
1,B2,+
2,B3,−
3,B4,−
4,B8,+
5,B7,−

# Same assay, conditions: in words; FIGS. 7-11, 21
row,Molecule,binding to 293T cells overexpressing cynomolgus ABCG2
1,B5,strong binding
2,B1,strong binding

# Test system: Panc1/T300 cells
# Test: Xenograft study with topotecan-resistant Panc1/T300 cells
# Assay type: in vivo
# Details: not given
# Experimental: PANC1 (ATCC, CRL-1469) is a pancreatic ductal epithelial carcinoma cell line. The topotectan-resistant Panc1/T300 cells were developed by continuously incubating PANC1 cells in the culture medium containing increasing concentration of topotecan of 25, 50, 100, 200 and 300 nM. […] The arrows indicate the dosing schedule.
row,Molecule,"tumor volume, in combination with topotecan"
1,B5,efficacious in reducing tumor volume
2,B6,efficacious in reducing tumor volume
3,B8,efficacious in reducing tumor volume

# From US20230212305A1, “ANTI-ABCG2 ANTIBODIES AND USES THEREOF” (Kenjockety Biotechnology, Inc., priority 2020, published 2023)
